Measurements published in article PMC9021188 (2022).
Read-outs that look alike come from different tables or passages of the source.

Experiments:
Assay in all cases: BLI
RaTG13 RBD protein [1] = biological target: RaTG13 RBD protein (RaTG13)
GX-pangolin RBD protein = GX-pangolin RBD protein (pangolin-CoV-GX)
SARS-CoV RBD protein = SARS-CoV RBD protein (SARS-CoV, UniProt P59594)
GD-pangolin RBD protein = GD-pangolin RBD protein (pangolin-CoV-GD)
RaTG13 RBD protein [2] = biological target: RaTG13 RBD protein (RaTG13); remark: listed apart in the source

B1: GW01 (antibody, V domains shown)
VH: EVQLVESGGGVVQPGGSLRLSCAASGFRFDDHAMHWVRQAPGKGLEWVSVISGDGGSTYYADSVKGRFSISRDDSKNSLYLQMNSLRTEDTALYYCAKDRSYGPPDVFNYEYGMDVWGQGTTVTVSS
VL: not shown
For B1, the Kd (RaTG13 RBD protein [1]) was 14.4 nM, the Kd (GX-pangolin RBD protein) was 7.42 nM and the Kd (SARS-CoV RBD protein) was 1.49 nM. For the same binder, the Kd (GD-pangolin RBD protein) was 4.05 nM and the Kd (RaTG13 RBD protein [2]) was 14.2 nM.
